Tests used:
Gαi1(R178M/A326S) = Gαi1(R178M/A326S) (human, UniProt P63096 1-354, R178M | A326S); assay: SPR
[1] = target: Wildtype, full-length human Gαi1 (human, UniProt P63096 1-354); assay: SPR
Chain of Wildtype, full-length human Gαi1 (P63096 whole entry): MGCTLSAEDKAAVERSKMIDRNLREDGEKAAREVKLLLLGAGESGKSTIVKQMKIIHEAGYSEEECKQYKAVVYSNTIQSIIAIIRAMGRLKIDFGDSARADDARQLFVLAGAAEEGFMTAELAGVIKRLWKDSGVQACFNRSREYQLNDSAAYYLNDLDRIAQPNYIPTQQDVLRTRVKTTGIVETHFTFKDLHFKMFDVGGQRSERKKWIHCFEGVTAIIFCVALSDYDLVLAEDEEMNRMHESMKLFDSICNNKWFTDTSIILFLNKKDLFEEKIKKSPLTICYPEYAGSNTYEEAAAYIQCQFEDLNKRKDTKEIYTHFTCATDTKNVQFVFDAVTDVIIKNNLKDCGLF

Chain of Gαi1(R178M/A326S) (P63096 whole entry R178M/A326S): as the sequence (P63096 whole entry) above, with R178M, A326S counted along it

B1: RGS16 (natural protein, human, UniProt O15492 1-202, looked up)
chain: MCRTLAAFPTTCLERAKEFKTRLGIFLHKSELGCDTGSTGKFEWGSKHSKENRNFSEDVLGWRESFDLLLSSKNGVAAFHAFLKTEFSEENLEFWLACEEFKKIRSATKLASRAHQIFEEFICSEAPKEVNIDHETHELTRMNLQTATATCFDAAQGKTRTLMEKDSYPRFLKSPAYRDLAAQASAASATLSSCSLDEPSHT
Kd (Gαi1(R178M/A326S)): 115 nM
Kd [1]: 124 nM
